Experimental data from patent US20100249372A1 (WISCONSIN ALUMNI RESEARCH FOUNDATION, published 2010).

What was measured:
Botulinum neurotoxin B = biological target: T1, Botulinum neurotoxin B (Clostridium botulinum, UniProt P10844 2-1291); assay: pull-down with immobilised GST-L4 (8 µg), western blot
T1 sequence: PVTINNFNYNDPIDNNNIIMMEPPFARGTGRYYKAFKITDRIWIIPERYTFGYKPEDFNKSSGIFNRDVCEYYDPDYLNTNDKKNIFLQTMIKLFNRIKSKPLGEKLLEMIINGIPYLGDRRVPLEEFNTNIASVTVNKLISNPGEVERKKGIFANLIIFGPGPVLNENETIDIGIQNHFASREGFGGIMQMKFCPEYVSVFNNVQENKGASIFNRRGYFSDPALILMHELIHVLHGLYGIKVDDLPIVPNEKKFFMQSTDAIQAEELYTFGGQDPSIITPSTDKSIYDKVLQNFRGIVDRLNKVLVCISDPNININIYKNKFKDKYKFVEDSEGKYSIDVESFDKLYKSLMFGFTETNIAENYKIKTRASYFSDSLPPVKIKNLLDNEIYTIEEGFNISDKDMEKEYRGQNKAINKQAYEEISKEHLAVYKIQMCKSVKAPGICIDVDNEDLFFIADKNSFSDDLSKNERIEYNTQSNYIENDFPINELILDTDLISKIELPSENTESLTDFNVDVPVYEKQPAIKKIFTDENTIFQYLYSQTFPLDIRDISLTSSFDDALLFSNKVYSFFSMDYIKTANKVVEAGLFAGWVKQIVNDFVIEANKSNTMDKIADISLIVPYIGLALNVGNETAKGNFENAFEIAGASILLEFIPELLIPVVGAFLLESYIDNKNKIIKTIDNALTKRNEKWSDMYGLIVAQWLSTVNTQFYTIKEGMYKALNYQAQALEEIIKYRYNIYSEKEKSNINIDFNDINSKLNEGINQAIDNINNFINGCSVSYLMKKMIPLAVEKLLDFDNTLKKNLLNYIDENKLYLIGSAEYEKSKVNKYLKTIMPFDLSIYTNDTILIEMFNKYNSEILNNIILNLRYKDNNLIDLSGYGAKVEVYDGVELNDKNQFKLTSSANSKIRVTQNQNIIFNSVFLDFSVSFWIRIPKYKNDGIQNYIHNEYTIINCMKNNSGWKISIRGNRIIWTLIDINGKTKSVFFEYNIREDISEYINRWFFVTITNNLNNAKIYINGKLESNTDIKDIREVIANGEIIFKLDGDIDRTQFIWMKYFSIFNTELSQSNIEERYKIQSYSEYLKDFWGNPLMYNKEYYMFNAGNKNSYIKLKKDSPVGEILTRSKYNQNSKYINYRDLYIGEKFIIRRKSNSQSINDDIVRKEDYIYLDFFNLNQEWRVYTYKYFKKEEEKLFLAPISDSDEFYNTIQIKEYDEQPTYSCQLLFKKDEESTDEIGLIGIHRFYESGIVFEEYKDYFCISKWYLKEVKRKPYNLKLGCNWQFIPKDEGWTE

Botulinum neurotoxin E = biological target: T2, Botulinum neurotoxin E (Clostridium botulinum, UniProt Q00496 2-1251); assay: as above
T2 sequence: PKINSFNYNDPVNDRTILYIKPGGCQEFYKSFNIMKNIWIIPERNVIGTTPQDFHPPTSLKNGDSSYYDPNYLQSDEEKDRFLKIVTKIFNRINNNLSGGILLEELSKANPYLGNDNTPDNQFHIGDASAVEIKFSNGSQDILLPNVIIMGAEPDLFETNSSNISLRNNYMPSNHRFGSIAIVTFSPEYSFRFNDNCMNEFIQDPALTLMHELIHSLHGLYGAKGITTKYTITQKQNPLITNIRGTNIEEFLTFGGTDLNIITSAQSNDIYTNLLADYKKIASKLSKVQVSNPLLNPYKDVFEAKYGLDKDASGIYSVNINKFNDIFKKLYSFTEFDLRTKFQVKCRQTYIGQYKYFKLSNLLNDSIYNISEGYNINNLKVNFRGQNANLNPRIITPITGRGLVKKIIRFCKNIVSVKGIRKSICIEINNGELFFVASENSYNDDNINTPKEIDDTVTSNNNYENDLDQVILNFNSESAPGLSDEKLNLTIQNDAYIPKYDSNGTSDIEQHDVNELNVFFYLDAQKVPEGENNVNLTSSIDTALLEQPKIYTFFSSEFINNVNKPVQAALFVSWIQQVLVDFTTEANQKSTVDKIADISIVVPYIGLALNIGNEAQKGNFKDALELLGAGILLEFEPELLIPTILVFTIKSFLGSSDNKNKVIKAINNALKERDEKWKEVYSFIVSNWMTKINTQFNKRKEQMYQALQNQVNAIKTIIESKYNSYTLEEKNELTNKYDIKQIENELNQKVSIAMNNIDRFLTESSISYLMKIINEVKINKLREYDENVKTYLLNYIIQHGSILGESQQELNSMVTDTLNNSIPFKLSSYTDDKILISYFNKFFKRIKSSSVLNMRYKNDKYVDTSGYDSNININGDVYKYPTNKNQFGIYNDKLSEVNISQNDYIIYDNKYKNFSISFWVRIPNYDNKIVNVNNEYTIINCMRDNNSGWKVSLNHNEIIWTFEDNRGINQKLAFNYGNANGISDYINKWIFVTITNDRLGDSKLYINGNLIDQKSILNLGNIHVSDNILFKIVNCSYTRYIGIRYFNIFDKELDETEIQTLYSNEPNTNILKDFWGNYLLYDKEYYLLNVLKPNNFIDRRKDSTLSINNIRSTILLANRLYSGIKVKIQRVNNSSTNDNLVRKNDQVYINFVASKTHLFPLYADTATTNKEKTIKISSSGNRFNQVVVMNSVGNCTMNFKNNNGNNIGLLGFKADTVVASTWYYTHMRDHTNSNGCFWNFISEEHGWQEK

Botulinum neurotoxin A = Botulinum neurotoxin A (Clostridium botulinum, UniProt P0DPI1 2-1296); assay: immunostaining of transfected SV2A/B double knockout hippocampal neurons

B1: GST-tagged 4th luminal domain (L4) of rat SV2C (other)
chain: FPDVIKHLQSDEYALLTRNVQKDKYANFSINFTMENQVHTGMEYDNGRFLGVKFKSVTFKDSVFKSCTFDDVTSVNTYFKNCTFIDTLFENTDFEPYKFIDSEFQNCSFLHNKTGCQITFDDDYSAY
B1: no binding (tested: 100 nM) (Botulinum neurotoxin B); no binding (tested: 100 nM) (Botulinum neurotoxin E).

B2: GST-tagged 4th luminal domain (L4) of rat SV2B (other)
chain: FPDMIRYFQDEEYKSKMKVFFGEHVHGATINFTMENQIHQHGKLVNDKFIKMYFKHVLFEDTFFDKCYFEDVTSTDTYFKNCTIESTTFYNTDLYKHKFIDCRFINSTFLEQKEGCHMDFEEDNDF
B2: no binding (tested: 100 nM) (Botulinum neurotoxin B); no binding (tested: 100 nM) (Botulinum neurotoxin E).

B3: GST-tagged 4th luminal domain (L4) of rat SV2A (other)
chain: FPDMIRHLQAVDYAARTKVFPGERVEHVTFNFTLENQIHRGGQYFNDKFIGLRLKSVSFEDSLFEECYFEDVTSSNTFFRNCTFINTVFYNTDLFEYKFVNSRLVNSTFLHNKEGCPLDVTGTGEGAY
B3: no binding (tested: 100 nM) (Botulinum neurotoxin B); no binding (tested: 100 nM) (Botulinum neurotoxin E).

B4: synaptotagmin I (other)
chain: MVSASHPEALAAPVTTVATLVPHNATEPASPGEGKEDAFSKLKQKFMNELHKIPLPPWALIAIAIVAVLLVVTCCFCVCKKCLFKKKNKKKGKEKGGKNAINMKDVKDLGKTMKDQALKDDDAETGLTDGEEKEEPKEEEKLGKLQYSLDYDFQNNQLLVGIIQAAELPALDMGGTSDPYVKVFLLPDKKKKFETKVHRKTLNPVFNEQFTFKVPYSELGGKTLVMAVYDFDRFSKHDIIGEFKVPMNTVDFGHVTEEWRDLQSAEKEEQEKLGDICFSLRYVPTAGKLTVVILEAKNLKKMDVGGLSDPYVKIHLMQNGKRLKKKKTTIKKNTLNPYYNESFSFEVPFEQIQKVQVVVTVLDYDKIGKNDAIGKVFVGYNSTGAELRHWSDMLANPRRPIAQWHTLQVEEEVDAMLAVKK
B4: no binding (tested: 10 nM) (Botulinum neurotoxin A).
